T1: IRBP 271-290 (P2) peptide on I-A^b (mouse)
T1 peptide: QTWEGSGVLPCVG

B1: 1 (TCR)
alpha TRAV12D-3 TRAJ13 CDR3: CALRAGSGTYQRF
beta TRBV3 TRBJ2-7 CDR3: CASSLAGTGVYEQYF
B2: 4 (TCR)
alpha TRAV9-4 TRAJ31 CDR3: CAVSPHSNNRIFF
beta TRBV2 TRBJ2-7 CDR3: CASSQEGLGGLGEQYF
B3: 5 (TCR)
alpha TRAV9-2 TRAJ31 CDR3: CVLSAGNNRIFF
beta TRBV20 TRBJ2-2 CDR3: CGASGPANTGQLYF
B4: 2 (TCR)
alpha TRAV12-2 TRAJ47 CDR3: CALSVYANKMIF
beta TRBV23 TRBJ2-4 CDR3: CSSSQTTNQNTLYF
B5: 3 (TCR)
alpha TRAV16N TRAJ15 CDR3: CAMREGGGGRALIF
beta TRBV15 TRBJ2-3 CDR3: CASSWGRGAETLYF

Molecular target: T1, IRBP 271-290 (P2) peptide on I-A^b
Assay: multimer staining

Row | binding result | Binder
1 | recognises | B1
2 | recognises | B2
3 | recognises | B3
4 | recognises | B4
5 | recognises | B5
